Assay results taken from US20250025544A1.

How the values were obtained:
[1] = target: … (EBV LMP2A, epitope 2) presented by HLA-A*0201 (human; EBV); assay: cell-based or functional assay
[2] = target: … (HCMV pp65, epitope 1) presented by HLA-A*0201 (human; HCMV); assay: cell-based or functional assay
[3] = scale: luciferase induction relative to uninfected controls

“TCR recognizing … presented by A*0201 (PDB #3REV), expressed on Jurkat-Lucia NFAT reporter T cells” showed an in vitro T cell activation assay (luciferase), targeting short cassette A (luciferase induction) [1] of 6.1, an in vitro T cell activation assay (luciferase), targeting short cassette B (luciferase induction) [1] of 6.3 and an in vitro T cell activation assay (luciferase), targeting short cassette C (luciferase induction) [1] of 7.6. The in vitro T cell activation assay (luciferase), targeting short cassette D (luciferase induction) [1] was 7, the in vitro T cell activation assay (luciferase), targeting short cassette E (luciferase induction) [1] was 5.9 and the in vitro T cell activation assay (luciferase), targeting short cassette F (luciferase induction) [1] was 3.7. It also gave an in vitro T cell activation assay (luciferase), targeting short cassette G (luciferase induction) [1] of 7.6, an in vitro T cell activation assay (luciferase), targeting short cassette H (luciferase induction) [1] of 5.4 and an in vitro T cell activation assay (luciferase), targeting short cassette I (luciferase induction) [1] of 6.2. The in vitro T cell activation assay (luciferase), targeting short cassette J (luciferase induction) [1] was 6.4, the induction of luciferase, short cassette AAY (luciferase induction) [1] was 11.3 and the luciferase induction, short cassette 9AA [1] was 12. It also gave a luciferase induction, short cassette 17AA [1] of 10.3, a luciferase induction, short cassette 25AA [1] of 14.6 and a luciferase induction, short cassette AAY [1] of 11.3. It also gave a luciferase induction, short cassette DPP [1] of 1.1 and a luciferase induction, short cassette RR [1] of 8.5.
“TCR recognizing … presented by A*0201 (PDB #5D2N), expressed on Jurkat-Lucia NFAT reporter T cells” gave an in vitro T cell activation assay (luciferase), targeting short cassette A (luciferase induction) [2] of 32.5, an in vitro T cell activation assay (luciferase), targeting short cassette B (luciferase induction) [2] of 31.8 and an in vitro T cell activation assay (luciferase), targeting short cassette C (luciferase induction) [2] of 29.1. For the same substance, the in vitro T cell activation assay (luciferase), targeting short cassette D (luciferase induction) [2] was 29.1, the in vitro T cell activation assay (luciferase), targeting short cassette E (luciferase induction) [2] was 28.4 and the in vitro T cell activation assay (luciferase), targeting short cassette F (luciferase induction) [2] was 20.4. For the same substance, the in vitro T cell activation assay (luciferase), targeting short cassette G (luciferase induction) [2] was 35, the in vitro T cell activation assay (luciferase), targeting short cassette H (luciferase induction) [2] was 30.3 and the in vitro T cell activation assay (luciferase), targeting short cassette I (luciferase induction) [2] was 22.5. It also gave an in vitro T cell activation assay (luciferase), targeting short cassette J (luciferase induction) [2] of 38.1, an induction of luciferase, short cassette AAY (luciferase induction) [2] of 24.5 and a luciferase induction, short cassette 9AA [2, 3] of 33.6. The luciferase induction, short cassette 17AA [2, 3] was 42.8, the luciferase induction, short cassette 25AA [2, 3] was 42.3 and the luciferase induction, short cassette AAY [2, 3] was 24.5. For the same substance, the luciferase induction, short cassette DPP [2, 3] was 0.9 and the luciferase induction, short cassette RR [2, 3] was 21.7.
